Here are results for 2 molecules from US20210238279A1 (Johns Hopkins, published 2021).

The target of one assay is T1, mouse ZnT8-His (mouse, UniProt Q8BGG0 1-367, limits assumed).
T1 construct: Over-expressed in HEK293 cells, solubilized with DDM and immobilized on Ni-NTA plates, or SDS-denatured on immunoblots; not shown: C-terminal poly-histidine tag
T1 sequence (looked up): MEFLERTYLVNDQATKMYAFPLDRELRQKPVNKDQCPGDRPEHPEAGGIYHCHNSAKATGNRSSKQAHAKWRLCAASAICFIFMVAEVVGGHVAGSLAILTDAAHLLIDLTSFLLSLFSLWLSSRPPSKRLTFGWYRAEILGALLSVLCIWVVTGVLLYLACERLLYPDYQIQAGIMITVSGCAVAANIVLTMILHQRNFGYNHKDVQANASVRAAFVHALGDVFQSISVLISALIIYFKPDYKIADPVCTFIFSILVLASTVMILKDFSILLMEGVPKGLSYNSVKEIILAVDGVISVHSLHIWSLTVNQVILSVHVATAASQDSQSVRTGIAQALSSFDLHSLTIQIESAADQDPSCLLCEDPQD
Briefly: ELISA titration on mouse ZnT8-His immobilized on Ni-NTA plate; apparent binding affinity, one-component fit; DDM-solubilized mouse ZnT8 immobilized to Ni-NTA plate via His-tag; mAb titration. From the text: (§1) FIG. 7A-7D. mAb binding specificities (FIG. 7A) mAb binding to ZnT8-His immobilized to Ni-NTA plate. Bound mAb20 (red) or mAb39 (magenta) was detected by an HRP-conjugated secondary antibody. Solid lines are least-squares fits of binding datapoints to a one-component binding process. Error bars are standard errors (n=8). (FIG. 7B) SDS-denatured mouse ZnT8-His (labeled as M) and human ZnT8-His (labeled as H) on immunoblots were detected by mAb20 or mAb39 as indicated. […] (FIG. 7C) Detection of endogenous human ZnT8 in EndoC-βH cells by mAb20 or […] immunoblotting. An equal amount of EndoC-βH lysate (5 μg total protein) was loaded to each lane. (FIG. 7D) Immunoblotting of HEK lysates with or with over-expression of a ZnT homolog as indicated. An approximately equal amount of total lysate protein (5 μg) was located to each lane, probed by either mAb20, mAb39, or anti-FALG antibody as indicated. FIG. 8. HTRF response to human ZnT8, mouse ZnT8 and human ZnT3.
Binding specificities. […] Of note, the epitope-masking effect of ZnT8 immobilization weakened the apparent binding affinities of both mAbs as compared to the affinities determined by flow-cytometry, and such a weakening effect was more pronounced for mAb39, probably due to a closer proximity of the mAb39 epitope to the C-terminal His-tag. Next, we compared the immunoreactivities of mAbs to denatured ZnT8.
In general terms: ELISA stands for enzyme-linked immunosorbent assay.

Assay [1] deals with T2, human ZnT7 with C-terminal FLAG tag (human, UniProt Q8NEW0 1-376).
T2 construct: Commercial HEK293 lysate (Origene), SDS-denatured on immunoblots; not shown: C-terminal FLAG octapeptide
T2 sequence (looked up): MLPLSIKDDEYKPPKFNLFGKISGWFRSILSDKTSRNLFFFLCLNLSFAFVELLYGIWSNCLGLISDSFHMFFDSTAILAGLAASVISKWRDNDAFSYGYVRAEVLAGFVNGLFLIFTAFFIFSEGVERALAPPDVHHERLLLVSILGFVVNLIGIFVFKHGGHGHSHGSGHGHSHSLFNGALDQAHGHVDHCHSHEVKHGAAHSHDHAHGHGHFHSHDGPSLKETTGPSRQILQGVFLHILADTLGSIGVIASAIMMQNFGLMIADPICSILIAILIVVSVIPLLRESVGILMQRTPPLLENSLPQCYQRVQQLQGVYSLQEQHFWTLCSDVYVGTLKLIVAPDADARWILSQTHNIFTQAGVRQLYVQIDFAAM
Put plainly: immunoblot of HEK293 lysates over-expressing FLAG-tagged ZnT homologs.
Description: as §1
(§2) Immunoblotting. SDS-solubilized cell lysate of EndoC-β cells or HEK293 cells over-expressing ZnT8 was subjected to SDS-PAGE and probed with a 1:3000 mAb20 or mAb39, followed by 1:3000 anti-mouse HRP-conjugated secondary antibody (GE Healthcare cat. #NA931V). A duplicated gel was Coomassie-stained to show an equal protein loading for each lane ([…]). To compare the mAb20 or mAb39 reactivities to different ZnT homolog, we used commercial HEK293 lysates with lentivirus-mediated over-expression of ZnT1, ZnT2, ZnT3, ZnT4, ZnT7, ZnT8, ZnT10, each is tagged by a Flag tag at the C-terminus (Origene, catalog nos. LY500001, LC412033, LC423751, LC401170, LY415673, LC428544, LC406320, and LC412886). Approximately equal amounts of total protein (5 μg) was loaded to each lane, and then probed with mAb20, mAb39, or anti-FLAG antibody (Origene, catalog no. TA50011-100) as above. The expression levels of ZnT homologs varied with ZnT1 most abundantly expressed.
Background: Immunoblotting shows a protein as a band on a membrane.

Assay [2] concerns the target T3, human ZnT1 with C-terminal FLAG tag (human, UniProt Q9Y6M5 1-507).
T3 construct: Commercial HEK293 lysate (Origene), SDS-denatured on immunoblots; not shown: C-terminal FLAG octapeptide
T3 sequence (looked up): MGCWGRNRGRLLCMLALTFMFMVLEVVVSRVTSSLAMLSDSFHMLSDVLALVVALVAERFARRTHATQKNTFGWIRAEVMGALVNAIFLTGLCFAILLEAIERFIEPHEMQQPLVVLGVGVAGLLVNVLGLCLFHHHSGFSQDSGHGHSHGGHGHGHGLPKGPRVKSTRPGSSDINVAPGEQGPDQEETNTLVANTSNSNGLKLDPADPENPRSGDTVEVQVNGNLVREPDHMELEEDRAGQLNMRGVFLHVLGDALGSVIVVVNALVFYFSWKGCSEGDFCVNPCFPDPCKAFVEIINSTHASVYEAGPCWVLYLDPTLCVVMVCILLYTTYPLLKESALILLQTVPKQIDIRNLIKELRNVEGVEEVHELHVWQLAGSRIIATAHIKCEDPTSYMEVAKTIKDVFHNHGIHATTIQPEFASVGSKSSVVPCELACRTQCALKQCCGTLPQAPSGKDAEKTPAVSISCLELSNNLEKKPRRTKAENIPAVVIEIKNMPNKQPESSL
The description is as above.
Description: as §1, §2

B1: mAb20 (antibody, V domains shown)
VH: QIQLVQSGPELKKPGETVKISCKASGYIFTNYPMHWVKQAPGKGLKWMGWINTYSGVPTHADDFKGRFAFSLETSANSAFLQINNLKNEDTATYFCTRSRITPTGGYAMDYWGQGTSVTVSS
VL: DVVMTQTPLSLPVSLGDQASISCRSSQSLVHSNGNTYLHWYLQKPGQSPNLLISKVSNRFSGVPERFSGSGSGTDFTLKISRVEAEDLGVYFCSQNTHVPWTFGGGTKLEIKR
notes: Mouse hybridoma mAb purified on protein A/G; In some assays it was labelled with Alexa Fluor 488 or terbium cryptate; also called monoclonal antibody mAb20; anti-ZnT8 mAb20
In the case of B1, the Kd with mouse ZnT8-His came to 1420 nM. In addition, the binding result in assay [1] and in assay [2] was “no binding” each time.

B2: mAb39 (antibody, V domains shown)
VH: QVQLQQPGAELVKPGASVKLSCKASGYSFTTYWMHWVKQRPGQGLEWVGDINPRNGRTNYNEKSKSKATLTVDISSSTVYMQVSSLTSEDSAVYYCAIWSGAMDYWGPGTSVTVSS
VL: DVVMTQTPLSLPVSLGDQPSISCKSSQSLVHNNGNTYLHWYLQKPGQSPKLLIYKVSNRFSGVPDRFSGSGSGTDFTLKISRVEAEDLGVYFCSQTTHVPPTFGGGTKLEIKR
notes: Mouse hybridoma mAb purified on protein A/G; In some assays it was labelled with Alexa Fluor 555 or d2; also called monoclonal antibody mAb39; anti-ZnT8 mAb39
Turning to B2, the Kd with mouse ZnT8-His worked out at 35.8 nM. The binding result in assay [1] and in assay [2] was “no binding” in each case.
